Experimental data published in the DeepSol protein solubility set.

assay: soluble on expression in E. coli; label from the status in PepcDB or PDB records

Sequence | soluble on expression in E. coli
MAHHHHHHMYVVGPMVDQSELPFRMLCRRYGATLAYSPMLHARSFAQSAQYRARYFSTTPHRAEPAMTATVSGEGEAAEDAGRTSDGKETDHPLFVQFCGNDADTLLAAARHVEDDCEAVDVNLGCPQGIARRGHYGSFLMEDWDRVHNILHCLAVELRVPVTAKMRVFDDDALTLKYAEMLRDTGIAVLCVHGRTRHNKRGLADMEKIRRVREHLRGSIPVIGNGNVLTFEDVRRNMSVTMTDGYMCAEPLLWDPRLFAAPLHPVRNGRCFAECCEARLDAIRTAQEYLQLVQRYPVDLAFVKAHLFKMLFHSYEMHPVMHGWLTNFSCNGRGGNNNNNAGSDVNGEVEDGDIDDGRSPDGASESGSGNANKAESNVKQAAGNLDFFAFAMDALGEHLRQLYAAEVSCGVEGPQPKRAHEREKGVNDDTSSSAKRKVETSHDAFAEDDVFGIDFDLNKK | soluble
MAHHHHHHSLENKGTNLTPEQALDRLEELYEQSVNALREAIADYVDNGTLPDPHARLNGLFVYPSLSVSWDGATPNPPKTRAFGRFTHPGCYTTTVTRPALFRAYLLEQLNLVYHDYGAHIAVEASHHEIPYPYVIDGSALTLDRSMSAGLTRHFPTTELAQIGDETADGLFHPGEFYPLSHFDARRVDFSLARLRHYTGTPVEHFQPFVLFTNYTRYVDEFVRWGCSQILDPDSPYIALSCAGGIWITAETEAPEEAISDLAWKKHQMPAWHLVTADGQGITLVNIGVGPSNAKTICDHLAVLRPDVWLMIGHCGGLRESQAIGDYVLAHAYLRDDHVLDAVLPPDIPIPSIAEVQRALYDATKAVSGMPGEEVKQRLRTGTVVTTDDRNWELRYSASALRFNLSRAVAIDMESATIAAQGYRFRVPYGTLLCVSDKPLHGEIKLPGQANRFYEGAISEHLQIGIRAIDLLRAEGDRLHSRKEG | soluble
MAHHHHHHSLIDCRYYQQNECRSCQWLEIPCSQQLTEKQYHLKQQLISINYDEAQWVAPFQSNQQGFRNKAKMVVSGSVERPILGILKNPNDPQSAIDLCDCPLYPTHFSAIFSILKDFIGRAGLVPYNIAKQKGELKYILLTESIATEKLMLRFVLRTENKLPLIRRELPKLLEKLPHLEVISINLQPQHAAILEGEQEIFLTEQQFLPENFNGIPLFIRPRGFFQTNPKVAAGLYATAQQWVAEFPIYNLWDLFCGVGGFGLHCAKALQEKWGKPIKLTGIEISSSAILAASHSAKILGLEHVNFQSLDAASVIENKNENKPDLVIVNPPRRGIGKELSEFLNQIQPHFILYSSCNAMTMGKDLQHLTCYKPLKIQLFDMFPQTSHYEVLVLLEREG | not soluble
MAHHHHHHSLMLKKNDIIQVAISDLSHEGAGVAKHDGFVFFVDNALPEEVIDMRVLKVNKNSGFGKVEAYHYLSSARNADVNLTYLRTGIADLGHLTYEDQLTFKKKQVQDSLYKIAGISDVTVESTIGMTEPLAYRNKAQVPVRRVNGQLETGFFRKHSHDLIPISDYYIQDKEIDRLINFTRDLLRRFDIKPYDETEQTGLLRNIVVRRGHYSGEMMLVLVTTRPKVFRVDQVIEKIVEAFPAVVSIIQNINDKNTNAIFGKDFKTLYGKDTITDSMLGNNYAISAQSFYQVNTVMAEKLYQTAIAFSDLSKDDIVIDAYSGIGTIGLSFAKTVKAVYGVEVIEAAVRDAQQNAALNGITNAYFVADTAEHAMATWAKDGIKPSVILVDPPRKGLTESFIQASVAMGPQKITYVSCNPATMARDIKRYQELGYKLAKVQPVDLFPQTHHVECVVLLIKEEG | not soluble
MAHHHHHHSLNDELKNKSGKVKVMYVRSDDDSDKRTHNPRTGKGGGRPAKSRTDGGRRPARDERNNQSRDRKHETSPWRTVSRAPGDETPEKVDHGGISGKSFIDPEVLRRQRAEETRVYGENACQALFQSRPDAIVRAWFIQSVTPRFKEALRWMAANRKAYHVVDEAELAKASGTEHHGGVCFLIKKRNGTTVKQWVKQAADQDCVLALEDVANPHNLGGMMRSCAHFGVKGVVVQDAALLESGAAIRTAEGGAEHVQPITGESIVDVLDDFRQAGYTVVTTSSDRGQALFSTTLPEKMVLVLGREYDYLPEAAREPDDLCVKINGTGNVESLNVSVATGVLLAEWWRQNKAEG | soluble
